This experiment deals with HLA-A0201 (Homo sapiens, UniProt P04439, D140Y/D185E/D98H/E176V/E277Q/G131W/G231S/I119V/I121R/I166T/I218V/L300P/L318F/N151K/N90K/P208A/P217A/Q86G/Q94H/R138H/R169H/T345S). The experiment is described as follows: ProImmune Module 2 REVEAL in-vitro MHC-peptide binding assay. As to conditions: synthesized modified peptides and unmodified counterparts; score relative to positive control peptide; FIG. 4F. The procedure:
ProImmune binding assay—ProImmune (www(dot)proimmune(dot)com) Module 2 REVEAL Binding Assay measure the yield of correctly conformed MHC-peptide complex following incubation of the recombinant MHC allele and peptide of interest using a conformational-dependent antibody in an immunoassay. Each peptide is given a score relative to the positive control peptide, which is a known T cell epitope.
To validate that the modified peptides identified with PROMISE are able to bind to HLA, the subset of modified peptides that were identified in immunopeptidomics of an HLA-A0201 cell line and that were not identified in IEDB in their unmodified form were filtered (FIG. 4D). Further, whether the difference in the detection of the modified peptides and their unmodified counterparts was due to their relative ability to bind HLA-A0201 was examined. […] Methylation of K-6 removes its positive charge and thereby alleviates electrostatic repulsion. In addition, the methyl group is nicely packed into the hydrophobic MHC groove. […] To assess the role of peptide modification in altering MHC binding 6 modified peptides and their unmodified counterparts were synthesized and their binding was examined using a binding assay (ProImmune). In these setting 4 of the synthesized modified peptides were confirmed as HLA binders.

The results in this text go back to patent US20240029819A1, “AGENTS BINDING MODIFIED ANTIGEN PRESENTED PEPTIDES AND USE OF SAME” (Yeda Research and Development Co. Ltd., priority 2020, published 2024).

“Also recorded” adds a separate entry of the source. Where no end group is shown, it is not given here. [ ]: non-standard residue; d: D form. N(d) = deamidated Asn

Turning to “K(me)VMDEVAGI (KVMDEVAGI; not fully specified (residue 1); printed as K(me)VMDEVAGI)”, the “binding to HLA-A0201 of the modified peptide compared with its matching unmodified form” value is listed as “bind the HLA-A0201 more strongly than the unmodified form”.
The entry for “TLE(me)NCLLPD(me) (TLENCLLPD; not fully specified (residues 3, 9); printed as TLE(me)NCLLPD(me))” is “bound the MHC only in its modified form”.
With “TLIESK(me)LPV (TLIESKLPV; not fully specified (residue 6); printed as TLIESK(me)LPV)” the entry was “bind more strongly in its modified form; also recorded: bind the HLA-A0201 more strongly than the unmodified form”; with TLN(d)SLIYTL (TL[N(d)]SLIYTL), “bind more strongly in its unmodified form”.
